Experimental data reported in the supplement of paper PMC7877785.
± gives the uncertainty stated by the source.

Test: self-splicing fitness, log relative to wild type (ln ratio); higher = more splicing; Tetrahymena group I intron in knt gene, E. coli kanamycin selection, DiMSum; sequences stand for … in CUCUCU…GGAGGGAAAAGUUAUCAGGCAUGCACCUGGUAGCUAGUCUUUAAACCAAUAGAUUGCAUCGGUUUAAAAGGCAAGACCGUCAAAUUGCGGGAAAGGGGUCAACAGCCGUUCAGUACCAAGUCUCAGGGGAAACUUUGAGAUGGCCUUGCAAAGGGUAUGGUAAUAAGCUGACGGACAUGGUCCUAACCACGCAGCCAAGUCCUAAGUCAACAGAUCUUCUGUUGAUAUGGAUGCAGUUCACAGACUAAAUGUCGGUCGGGGAAGAUGUAUUCUUCUCAUAAGAUAUAGUCGGACCUCUCCUUAAUGGGAGCUAGCGGAUGAAGUGAUGCAACACUGGAGCCGCUGGGAACUAAUUUGUAUGCGAAAGUAUAUUGAUUAGUUUUGGAGUACUCGUGGUCG
In short: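 Pooled colonies went to amplicon sequencing on an Illumina HiSeq 2500 after six replicate transformations. The plates were LB agar with 100 μg/mL carbenicillin, 50 μM IPTG and 0.2% rhamnose, with or without 25 μg/mL kanamycin, incubated overnight at 37°C or 30°C. The E. coli BL21(DE3) library had all eight P1ex-region intron nucleotides randomised, the intron placed in the knt kanamycin-resistance gene on pET-22b(+). DiMSum fitness is the error-weighted combination of replicate fold changes, kanamycin against none, normalised to wild type.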

Sequence	self-splicing fitness (ln) (30 °C)	self-splicing fitness (ln) (37 °C)
CUACAGCAAUAUUACGAAGC	-3.61 ± 0.24	-2.85 ± 0.25
CUACAGCAAUAUUACGAAGG	-1.22 ± 0.1	-1.49 ± 0.14
CUACAGCAAUAUUACGAAGU	-4.24 ± 0.29	-2.52 ± 0.19
CUACAGCAAUAUUACGAAUC	-4.32 ± 0.23	-2.61 ± 0.23
CUACAGCAAUAUUACGACGU	-4.63 ± 0.23	-3.03 ± 0.2
CUACAGCAAUAUUACGAGGG	-3.38 ± 0.19	-2.59 ± 0.2
CUACAGCAAUAUUACGAUGC	-3.88 ± 0.39	-2.81 ± 0.2
CUACAGCAAUAUUACGCAGU	-3.78 ± 0.24	-2.32 ± 0.22
CUACAGCAAUAUUACGCCUU	-2.27 ± 0.2	-1.4 ± 0.31
CUACAGCAAUAUUACGCGAG	-2.9 ± 0.098	-1.74 ± 0.1
CUACAGCAAUAUUACGCGCA	-3.72 ± 0.22	-2.12 ± 0.19
CUACAGCAAUAUUACGCGGC	-2.27 ± 0.15	-0.807 ± 0.14
CUACAGCAAUAUUACGCUCG	-1.49 ± 0.089	-1.46 ± 0.13
CUACAGCAAUAUUACGGAGG	-2.21 ± 0.087	-1.33 ± 0.11
CUACAGCAAUAUUACGGAUU	-3.46 ± 0.14	-2.5 ± 0.21
CUACAGCAAUAUUACGGCUG	-3.92 ± 0.18	-2.57 ± 0.22
CUACAGCAAUAUUACGGGAU	-2.74 ± 0.15	-2.99 ± 0.27
CUACAGCAAUAUUACGGGCG	-1.2 ± 0.065	-0.108 ± 0.092
CUACAGCAAUAUUACGGUGC	-4.58 ± 0.28	-2 ± 0.17

Sequence	self-splicing fitness (ln) (30 °C)	self-splicing fitness (ln) (37 °C)
CUACAGCAAUAUUACGGUGU	-3.23 ± 0.13	-2.49 ± 0.14
CUACAGCAAUAUUACGUACA	-1.78 ± 0.17	-1.29 ± 0.2
CUACAGCAAUAUUACGUCCU	-3.25 ± 0.18	-2.38 ± 0.17
CUACAGCAAUAUUACGUCUG	-1.77 ± 0.1	-1.45 ± 0.13
CUACAGCAAUAUUACGUUCA	-2.98 ± 0.19	-0.865 ± 0.098
CUACAGCAAUAUUACGUUGC	-3.67 ± 0.23	-2.82 ± 0.21
CUAGAGCAAUAUUACGAAUG	0.298 ± 0.095	0.533 ± 0.11
CUAGAGCAAUAUUACGACCU	-3.67 ± 0.27	-2.99 ± 0.33
CUAGAGCAAUAUUACGAGUA	-3.71 ± 0.23	-1.17 ± 0.17
CUAGAGCAAUAUUACGAUAU	-3.18 ± 0.27	-2.09 ± 0.25
CUAGAGCAAUAUUACGAUGA	-1.86 ± 0.14	-1.12 ± 0.22
CUAGAGCAAUAUUACGAUUG	-0.464 ± 0.071	-0.493 ± 0.077
CUAGAGCAAUAUUACGCACU	-4.52 ± 0.46	-1.99 ± 0.41
CUAGAGCAAUAUUACGCCGG		-0.534 ± 0.29
CUAGAGCAAUAUUACGCGCA	-1.95 ± 0.33	-1.21 ± 0.35
CUAGAGCAAUAUUACGCGUA	-3.78 ± 0.2	-2.97 ± 0.26
CUAGAGCAAUAUUACGCUGA	-3.92 ± 0.23	-2.25 ± 0.23
CUAGAGCAAUAUUACGGAAU	-3.15 ± 0.27	-2.82 ± 0.38
CUAGAGCAAUAUUACGGCAA	-3.09 ± 0.22	-2.96 ± 0.34
